Measurements as given in the nanobody polyreactivity screen of Harvey et al. (2022).

Assay: yeast display, Sf9 membrane polyspecificity reagent, FACS + sequencing; frameworks hold sequencing errors
Outline: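 Sorting gates, low and high (top ~1%), were placed on anti-HA fluorescence to track expression and on streptavidin fluorescence to track reagent binding. A clone's polyreactivity label is taken from the gate it came out of. The reagent was 10% biotinylated, detergent-solubilized Sf9 membrane, applied for 1 hour at 4 °C to galactose-induced yeast display cells.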

## QVQLVESGGGLVQAGGSLRLSCAASGSIFSSYTMGWYRQAPGKERELVASITSGDSTNYADSVKGRFTISRDNAKNTVYLQMNSLKPEDTAVYYCNKSTLGVPVYEVIFEYWGQGTQVTVSS
  polyreactivity (PSR sort gate): low polyreactivity

## QVQLVESGGGLVQAGGSLRLSCAASGSTFLGNAMGWYRQAPGKERELVATITGSSGSTYYADSVKGRFTISRDNAKNTVYLQMNSLKPEDTAVYYCNTVYNYWDGYDYWGQGSQVTVSS
  polyreactivity (PSR sort gate): low polyreactivity

## QVQLVESGGGLVQAGGSLRLSCAASGITFRQYAMGWYRQAPGKERELVAVITSRGGTTYYADSVKGRFTISRDNAKNTVYLQMNSLKPEDTAVYYCAKVYGFPYYRAYFPERRNGYWGQGTQVTVSS
  polyreactivity (PSR sort gate): high polyreactivity

## QVQLVESGGGLVQAGGSLRLSCAASGRTFRYNAMGWYRQAPGKERELVAAINWNGGSTYYADSVKGRFTISRDNAKNTGYLQMHSLKPEDTAVYYCNADFYHRYDWGQGTQVTGSS
  polyreactivity (PSR sort gate): high polyreactivity

## QVQLVDSGGGLVQAGGSLRLSCAASGSTYSPNAMGWNRQAPGKERELVAAITGGGSTTYADSVQGRFTISRDNATNTVYLQMNSLKPEETAVYYCNTDGPRYARPFDSWGQGTQVTVSS
  polyreactivity (PSR sort gate): low polyreactivity

## QVQLVESGGGLVQAGGSLRLSCAASGLIFYYYAMGWYRQAPGKERELVAAITSDDRTYYADSVKGRFTISRDNAKNTFYLQMNSLKPEDTAVYYCAARYHGYLPQYRKYGYGYWGQGTQVTVSS
  polyreactivity (PSR sort gate): high polyreactivity

## QVQIVESGGGLVQAGGSLRLSCAASGYPFCRNAMGCYRQAPGKERELVAAISRSAGSTNYADSVKGRFTISRDNAMYTVYFQMNSLKPEDTAVYYGAADRYYRDPYWGNYWGQGTQVTVSS
  polyreactivity (PSR sort gate): high polyreactivity

## QVQLVESGGGLVQAGGSLRLSCAASGSIFSKYAMGWYRQAPGKERELVAAISWSGTSTYYADSVKGRFTISRDNAKNTVYLQMNSLKPEDTAVYYCAASSPRSLSLLGYWGQGTQVTVSS
  polyreactivity (PSR sort gate): low polyreactivity

## QVQLVESGGGLVQAGGSLRLSCAASGRTFGSYVMVWYRQAPGKEREFVAVISGSVGSTYYADSVKGRFTISRDNAKNTVYLQMNSLKPEDTAVYYCARRGIRTSETKQYHQYNYWGQGTQVTVSS
  polyreactivity (PSR sort gate): low polyreactivity

## QVQLVESGGGLVQAGGSLRLSCAASGSIFRLYALGWYRQAPGKERELVAAISRRGGSTNYADSVKGRFTISRDNAKNTVYFQMNSLKPEDTAVYYCARDVDTHYPYAYDYWGQGTQVTVSS
  polyreactivity (PSR sort gate): high polyreactivity

## QFQLVESGGGLVQAGGSLRLSCAASGSIFTLYDMGWYRQAPGNERELVAAISSGGGSTYYADSVKGRFTISRDNAKNTVYLQMNSLKPEDTAVYYCAARNRRAKYGDWGQGTQVTVSS
  polyreactivity (PSR sort gate): high polyreactivity

## QVQLVESGGGLVQAGGSLRLSCAASGSIFYPNAMGWYRQAPGKERELVAVITGGATTYYADSVKGRFTISRDNAKNTVYLQMNSLKPEDTAVYYCAADSAENVYRGYYWGQGTQVTVSS
  polyreactivity (PSR sort gate): low polyreactivity

## QVQLVESGGCLVQAGGSLRLSCAASGRTFSIYAMGWYRQAPGKEWELVASINGSGGSTYYADSVKGRFTISRDIAMNTVYLQMNSLKPEDTAVYYCAARASPRFNYWGQGSQVTVSS
  polyreactivity (PSR sort gate): high polyreactivity

## QDQLVESGGGLVHAGGSLRLSCVPPDSSSLSMLWDGIDRRLGKKGSWLPELTSRGVGTYYADSVKGRFTISRDNAKNPVYLQMNSLKPEDTAVYYCNARYEVFYRYDYWGQGTQVTVSS
  polyreactivity (PSR sort gate): low polyreactivity

## QVQLVESGGGLVQAGGRLRLSSAASGRIFTNYAMGWYRQAPGKERELVARISKRGGSTYYADSVKGRLTFSRDNAKNTVYLQMNSLKPEDTAVYYCNAVSNLYYYWGQGTQVTVSS
  polyreactivity (PSR sort gate): high polyreactivity

## QVQLVESGGGLVQAGGSLRLSCAASGFIFEGYAMGWYRQAPGKERELVATISRSGGRTNYADSVKGRFTISRDNAKNTVYLQMNSLKPEDTAVYYCAAAYLRRVAYDYWGQGTQVTVSS
  polyreactivity (PSR sort gate): high polyreactivity

## QVQLVESGGGIVQAGGSLRLSCAASGFTFGYYARGWYRQAPGKERELVAAISSRVGRTYYADSVKGRFTISRDNAKNTDYLQMNSLKPEDTAVYYCNTVGKTQWYYYWGQGTQVTVAS
  polyreactivity (PSR sort gate): high polyreactivity

## QVQLVESGGGLVQAGGSLRLSCAASGITFGRNTMGWSRQAPGKEREMVASITRGGNTNYADSVKGRFTISRDNAKNTVYLQLNSLKPEDTAVYYCAARSTYRVSHVDYWGQGTQVTVSS
  polyreactivity (PSR sort gate): low polyreactivity

## QVQLVESGGGVVQAGGSLRLSCAASGSIFKSYAMGWYRQAPGKERELVAAITWSGGSTHYADSVKGRFTISRDNAKNTVYLQMNSLKPEDTAVYYCAADGYTGQAELDSWGQGTQVTVSS
  polyreactivity (PSR sort gate): low polyreactivity

## QVQLVESGGRLVQAGGSLRLSCAASGFTFARYTMGWYRQAPGKERELVAAISSRGSSTYYADSVKWRFTISRDNAKNTVYLQMNSLKPEDTAVYYCGAPPRYGYDYWGQGTQVTVSS
  polyreactivity (PSR sort gate): high polyreactivity

## QVQLEESGGGLVQAGGSLRLSCAASGRTFVYYAMGWYRTATGKQRELVAAITSSGSRTYYADSVKGRFTFSRDNAKNTVYLQMNSLKPEDTAVYYCAADYVAHGDYRVLYDYWGQGTQVTVSS
  polyreactivity (PSR sort gate): low polyreactivity

## QDQLVESGGGLVQAGGSLRLSCAASGITFPNYAMGWYGQAPGKERELVAAISRGDSTYYADSVKGRFTISRDNAKNTVYLQMNSLKPEDTAVYYCAARYGRYWSSSGSWTPYGYWGQGTQVTVSS
  polyreactivity (PSR sort gate): high polyreactivity

## QVQLVESGGGLVQAGGSLRLSCAASGFIFYYNAMGWYRQAPGKERELVATIRGSGGSTYYADSVKGRFTISRDNAKNTVYLQMNSLKPEDTAVYYCATTIYGLTSRLYYWGQGTQVTVSS
  polyreactivity (PSR sort gate): high polyreactivity

## QVQLVESGGGLVQAGGSLRLSCAASGITFNYYAMGWYRQAPGKERELVATINRSGGTTYYADSVKGRITISRDNAKNTVYLQMNSLKPEDTAVYYCNARYTSRGRYHSGYDYWGQGTQVTVSS
  polyreactivity (PSR sort gate): high polyreactivity

## QVQLVESGGGLVQAGGRLRFSCAASGSTFVNNAMGWYRQAPGKERELVAAISRRGGRTYYADSEKGRFTISRDNAKNTVYLQMKSLKPEDTAVYYCAADESRYDYWGQGTQVTVSS
  polyreactivity (PSR sort gate): high polyreactivity

## QVQLVESGGGLVQAGGSLRLSCAASGSIFIQYAMGWYRQAPGKERELVAAITGSGGSTYYADSVKGRFTISRDNAKNTVYLQMNSLKPEDTAVYYCATEFKRGYVGFDYWGQGTQVTVSS
  polyreactivity (PSR sort gate): low polyreactivity

## QVQLVESGGGLVQAGGSLRLSCAASGSTFYEYAMGWYRQAPGKERELVATINWS
  polyreactivity (PSR sort gate): low polyreactivity

## QVQLVESGGGLVQAGGSLRLSCAASGRIFTGNAMGWNRQAPGKERELVAAISASGSSTYYADSVKGRFTISRDNAKNTVYLQMNRLKPDDTAVYYCAADGWYGYYYWGQGTQVTVSS
  polyreactivity (PSR sort gate): high polyreactivity

## QVQLVESGGGLVQAGGILRLSCAASGSIFIYYAMVWYRQAPGKERELVAAISSSGGRTYYADSVKGRFTISRDNAKNTVYLQMNSLTPEDTAVYYCNAVGRRWYRDPARYNEYNYWGQGTQVTVSS
  polyreactivity (PSR sort gate): high polyreactivity

## QVQLEESGGGLVQAGGSLRLSCAASGSIFAVYAMGWYIQAPGKERELVATISGRGGSTYYADSVKGRFTISRDNAKNTVYLQMNSLKPEDTAVYYCNARVLFRRERMDSWGQGTQVTVSS
  polyreactivity (PSR sort gate): high polyreactivity

## QVQLVESGGGLVQAGGSLRLSCAASGFIFRWYAMGWYRPAPGKERELVASINWSGSRTNYADSVKGRFTISRDNAKNTVYLQMNSLKPEDTAVYYCNAYGGLQYDYWGQGTQVTVSS
  polyreactivity (PSR sort gate): high polyreactivity

## QVQLVESGGGLVQAGGSLRLSCAASGFIFVKYAMGWNRQAPGKERELVAAITNGCSTYYADSVKGRFTISRDNAKNTVYLQMNSLKPEDTAVYYCAAGHPEYDFWGQGTQVTVSS
  polyreactivity (PSR sort gate): low polyreactivity

## QVQLVESGGGLVQAGGSLRLSCAASGSTLTANAMGWYRQAPGKERELVAAISSAGRTYYADSVKGRFTISRDNAKNTVYLQMNSLKPEDTAVYYCAAPYGQLFTQGTWYEYWGQGTQVTVSS
  polyreactivity (PSR sort gate): low polyreactivity

## QVQLVESGGGLVQAGGSLRLSCAASGSILFTNAMGWYRQAPGKERELVAAISSGGSTYFADSVKGRFTISRDNAKNTVYLQMNSLKQEDTAVYYCAADQLNVGREYVEYDYWGQGTQVTVSS
  polyreactivity (PSR sort gate): low polyreactivity

## QVQHVESGGGLVQAGGSLRLSCAASGSTFAYNDMGRYRQAPGKERELVADIRSGGNTNYADSVKGRFTISRDNAKNTVYLQMNSLKPEDTAVYYCATDGYRIDVYHPDYRYDYWGQGTQVTVSS
  polyreactivity (PSR sort gate): low polyreactivity

## QVQLEESGGGLVQAGGSLRLSCAASGRILSLYAMGRYRQAPGKERELVAAIRWSGSRTYYADSVKGRFTISRDNAKNTVYLQMNSLKPEDTAVYYCAAESHYPHKPGSDYWGQGTQVTVSS
  polyreactivity (PSR sort gate): high polyreactivity

## QVQLVESGGGLVQAGGSLRLSCAASGITFPGNAMGWYRQAPGKERELVAVISSGTSTNYADSVKGRFTISRDNAKYTVYLQMNSLKPEDTAVYYCATSLYYYPYYYWGQGTQVTVSS
  polyreactivity (PSR sort gate): low polyreactivity

## QVQLVESGGGLVQAGGSLRLSCAASGNILYANAMGWYRQAPGKERELVATINVSADSTYADSVKGRFTISRDNAKNTVYLQMNRLNPEDTAVYYCNAYGLYEKWGPWTVPYYYWGQVTQVTVSS
  polyreactivity (PSR sort gate): low polyreactivity

## QVQLVESGGGLVQAGGSLRLSCAASGIIFGYYTMGWYRQAPGKERELVARITTGSSTNYADSVKGRFTISRDNAKNTVYLQMNSLKPEDTAVYYCAAVPIAADKANGYDYWGQGTQVTVSS
  polyreactivity (PSR sort gate): low polyreactivity

## QVQLVESGGGLVQAGGSLRLSCAASGSIFPRNAMGWYRQAPGKERELVARINSGGTTKYADSVKGRFTISRDNAKYTVFLQMNSLKPEDTAGYYCNADTYILDPLRKSYGYDYWGQGTQVTVSS
  polyreactivity (PSR sort gate): low polyreactivity

## QVQLQESGSGQVQAGGSLRLSCAASGAIFPAYLMGWYRQAPGKERELVAGISYGSITYCADSVKGRFNISRDNAKNTVYLQMNSLKPEDTAVYYCAVWRPGGDEYYYWGQGTQVTVSS
  polyreactivity (PSR sort gate): low polyreactivity

## QVQLVESGGGLVQAGGSRRLSCAASGRTFEGNAMGWYRQAPGKERELVAAITSGGRTNYADSVKGRFTISRDNAKNTVYLQMNSLKPEDTAVYYCAVDTRDRSTYFPGQAYDFWGQGTQVTVSS
  polyreactivity (PSR sort gate): low polyreactivity

## QVQLVESGGGLDQAGGSLRLSCAASGSIFVYYAMGWYRHAPGKEMELVAAITSGTSTNYADSVKGRFTISRDNAQNTVYLQMNSLKPEDTAVYYCAADHYYTGTTYNYWGQGNQVTVSS
  polyreactivity (PSR sort gate): low polyreactivity
